Tests used:
[1] = test system: pancreatic cancer cell line BxPC3; assay: Mouse xenograft tumor model BxPC3; assay type: in vivo, immunodeficient mice CB17-SCID; details: low dose (3 mg/kg), intraperitoneal, single administration
Description: • 1. Mice: immunodeficient mice CB17-SCID (Vital River) aged 6-8 weeks were placed in an SPF experimental environment for 3-5 days before the experiment to better adapt to the current living environment. In all experiments, the long and short diameters of the tumor were measured twice a week using a vernier caliper, and the tumor volume (mm^3) was calculated from the measured data. The calculation formula is as follows: Tumor volume(mm^3) = 0.5 × long diameter(mm) × short diameter(mm) × short diameter(mm) [formula] • 2. Human gastric cancer cell line NCI-N87 (ATCC) cells were resuspended in 1× PBS (Gibco, 10010049) at an appropriate concentration, and the tumor cells were implanted subcutaneously in the right abdomen of the mice at an inoculation amount of 2×10^6 /mouse. When the tumor volume reached 150-200 mm^3, the mice were divided into groups such that the average initial administration volume of each group was substantially the same. After grouping, different doses of antibody-drug conjugates hRs7-DXd, hRS7-MB3 and hTINA1-DXd, or control-drug conjugates IgG-MB3, IgG-DXd and IgG control were administered by intraperitoneal injection. […] Compared with hRS7-DXd, hRS7-MB3 has a stronger tumor inhibitory effect. […] The growth status of the mice was observed, and the changes in tumor volume of the mice were measured. […]

[2] = test system: Human gastric cancer cell line NCI-N87; assay: Mouse xenograft tumor model NCI-N87; assay type: in vivo, immunodeficient mice CB17-SCID; details: intraperitoneal injection
Description: • 1. Mice: immunodeficient mice CB17-SCID (Vital River) aged 6-8 weeks were placed in an SPF experimental environment for 3-5 days before the experiment to better adapt to the current living environment. In all experiments, the long and short diameters of the tumor were measured twice a week using a vernier caliper, and the tumor volume (mm^3) was calculated from the measured data. The calculation formula is as follows: Tumor volume(mm^3) = 0.5 × long diameter(mm) × short diameter(mm) × short diameter(mm) [formula] • 2. Human gastric cancer cell line NCI-N87 (ATCC) cells were resuspended in 1× PBS (Gibco, 10010049) at an appropriate concentration, and the tumor cells were implanted subcutaneously in the right abdomen of the mice at an inoculation amount of 2×10^6 /mouse. When the tumor volume reached 150-200 mm^3, the mice were divided into groups such that the average initial administration volume of each group was substantially the same. After grouping, different doses of antibody-drug conjugates hRs7-DXd, hRS7-MB3 and hTINA1-DXd, or control-drug conjugates IgG-MB3, IgG-DXd and IgG control were administered by intraperitoneal injection. […] Compared with hRS7-DXd, hRS7-MB3 has a stronger tumor inhibitory effect. […] Non-small cell lung cancer cell line HCC827 cells purchased from ATCC were inoculated subcutaneously into mice (2×10^6 /mouse), and when the tumor volume reached 120-150 mm^3, the mice were grouped and administered. Different doses of the antibody-drug conjugate and the control drug were intraperitoneally injected into the mice, and the administration was performed only once throughout the experiment. The growth status of the mice was observed, and the changes in tumor volume of the mice were measured. […] The lung squamous cell carcinoma cell line LK-2 (CBP60105) purchased from Nanjing Cobioer Biosciences was implanted subcutaneously in the right abdomen of the mice at an inoculation amount of 3 × 10 ^6 cells/mouse. When the tumor volume reached 150-200 mm^3, the mice were divided into groups such that the average initial administration volume of each group was substantially the same. The mice were administered only once throughout the experiment and injected intraperitoneally at a dose of 10 mg/kg. IgG-MB3 or IgG-DXd was used as a negative control. It was observed that two TROP2-targeted ADCs were also able to delay tumor growth in a tumor model with relatively low TROP2 expression (FIG. 7). […] The pancreatic cancer cell line BxPC3 cells purchased from ATCC were implanted subcutaneously in the right abdomen of the mice at an inoculation amount of 3 × 10 ^6 cells/mouse. […]

B1: hTINA1-DXd: control ADC: antibody hTINA1 conjugated with Linker-DXd, average DAR 4.3; TROP2-ADC from Daiichi Sankyo (conjugate, chains of the INN, looked up)
VH: QVQLVQSGAEVKKPGASVKVSCKASGYTFTTAGMQWVRQAPGQGLEWMGWINTHSGVPKYAEDFKGRVTISADTSTSTAYLQLSSLKSEDTAVYYCARSGFGSSYWYFDVWGQGTLVTVSS
VL: DIQMTQSPSSLSASVGDRVTITCKASQDVSTAVAWYQQKPGKAPKLLIYSASYRYTGVPSRFSGSGSGTDFTLTISSLQPEDFAVYYCQQHYITPLTFGQGTKLEIK
modifications: deruxtecan (Linker-DXd), DAR 4.3
notes: control ADC: antibody hTINA1 conjugated with Linker-DXd, average DAR 4.3; TROP2-ADC from Daiichi Sankyo
tumor inhibitory effect [1]: equivalent tumor inhibitory effects | tumor inhibitory effect ([2]; high-dose group (3 mg/kg)): comparable tumor inhibitory effects | tumor inhibitory effect ([2]; low dose (1 mg/kg), compared with IgG-MB3 and IgG-DXd): a certain degree of tumor inhibitory effect

From patent publication EP4785962A1, “ANTIBODY-DRUG CONJUGATE TARGETING TROP2, AND PREPARATION METHOD AND USE THEREFOR” (priority 2023, dated 2025)
